The target in assay [1] is human α-thrombin (human), P00734. Kind of assay: 15N CPMG NMR relaxation dispersion of thrombin-cleaved FD22, two-site fit at the highest thrombin concentration; Arg47; FD22-C present; 288 K.
Assay [2] shares this target. Briefly: 15N CPMG NMR relaxation dispersion of thrombin-cleaved FD22, two-site fit, highest thrombin:ligand ratio; Arg47; FD22-C present; 288 K.
Assay [3] deals with human prothrombin (human), P00734. Briefly: 15N CPMG NMR relaxation dispersion, full three-site fit of eighteen curves; 298 K.
The target is the same in assay [4]. Kind of assay: 15N CPMG NMR relaxation dispersion, linear three-site fit of Glu57; 298 K.
The target is the same in assay [5]. Briefly: 15N CPMG NMR relaxation dispersion, linear three-site fit of eighteen curves; 298 K.
Assay [6] has the same target. Briefly: 15N CPMG NMR relaxation dispersion, two-site fit; Tyr63; 288 K.
The target is the same in assay [7]. Kind of assay: 15N CPMG NMR relaxation dispersion, two-site fit; Glu57; 288 K.
For assay [8] the target is unchanged. Briefly: 15N CPMG NMR relaxation dispersion, two-site fit; Phe56; 288 K.
For assay [9] the target is unchanged. Briefly: 15N CPMG NMR relaxation dispersion, two-site fit; Glu58; 288 K.
Assay [10] shares this target. Briefly: 15N CPMG NMR relaxation dispersion, two-site fit; Glu62; 288 K.
Assay [11] has the same target. Kind of assay: 15N CPMG NMR relaxation dispersion, two-site fit; Ile59; 288 K.

Molecule FDPR (modifications not checked) [FD22-N] displayed a koff in assay [1] of 310 s⁻¹. Also, the pb (apparent fraction of the bound peptide) in [2] worked out at 3.2%.

DFEEIPEEYLQ (not fully specified; modifications not checked) [N-acetyl-Hir(55-65)]: in assay [3], the pb1 (population of the first bound state) was 1.45%, the pb2 (population of the second bound state) is 1.5% and the pb (total bound population) worked out at 3%. In addition, in assay [4], the pb1 (population of the dissociation-competent bound state) was 1.3%, the pb2 (population of the second bound state) turned out to be 4% and the pb=pb1+pb2 (total bound population) came to 5.3%. Moreover, in [5], the pb1 (population of the first bound state) is 2.3%, the pb2 (population of the second bound state) was determined as 1% and the pb (total bound population) turned out to be 3.35%.

GDFEEIPEEYLQ (modifications not checked) [Hir(54-65)]: the pb (apparent fraction of the bound peptide) in assay [6] turned out to be 6.7%; in assay [7], 4.9%; in [8], 4.5%; in assay [9], 6.5%; in assay [10], 6.9%; in [11] it was 6%.

As usually defined, the koff is the first-order rate constant of dissociation. A high value points to fast dissociation.

For the origin of these results see patent US20050287527A1, “Quantitative ranking of transient ligand binding to target biomolecules” (National Research Council of Canada, priority 2002, published 2005).
